Assay results published in the nanobody polyreactivity screen of Harvey et al. (2022).

Experiment: yeast display, Sf9 membrane polyspecificity reagent, FACS + sequencing; frameworks hold sequencing errors
In short: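 Nanobodies came from a synthetic yeast display library in Saccharomyces cerevisiae BJ5465, induced with galactose for 36–48 hours and stained for 1 hour at 4 °C with 10% biotinylated, detergent-solubilized Sf9 membrane reagent. Cells were enriched on streptavidin microbeads and then FACS-sorted, with low and high (top ~1%) gates set on anti-HA fluorescence for expression and streptavidin fluorescence for reagent binding. Each polyreactivity label reflects the gate a clone came from. Genes were amplified by colony PCR, sequenced by MiSeq 2 × 250 and filtered by CDR length.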

| Sequence | polyreactivity (PSR sort gate) |
| --- | --- |
| QVQLVESGGGLVQAGGSLRLSCAASGSIVSVYAMGWSRQAPGKEREWVAAISGRGGRTYYADSVKGRFTISRDNAKNTVYLQMNSLKPVDTAVYYCAARYPRYRYVEYGYNYWGQGTQVTVSS | high polyreactivity |
| QVQLVESGGGLVQAGGSLRLSCAASGRIFPAYVMGWYRQAPGKERQLVATIDNGGGTYFADSVKGRFTISRDNAKNTVYLQMNRLKPVETAVYYCARDRHVRWGLNMDYWGQGTQVTVSS | low polyreactivity |
| QVQLVESGGGLVQAGGSLRLSCAASGGIFIDYTMGWYRQAPGKERELVAAITRGGSTYYADSVKGRFTISRDNAKNTVYLQMNSLKPEDTAVYYCAARANTPVGHNRFGYWGQGTQVTVSS | low polyreactivity |
| QVQLVESVGGLVQAGGSLRLSCAASGSTFAFYDMGWYRQAPGKERELVAAISQSDGDTYYADSVKGRFTISRDNAKNTVYLQMNSLKPEDTAVYYCAAETAHTPEYERGSDYWGQGTQVTVSS | low polyreactivity |
| QVQLVESGGGLVQAGGSLRLICAASGITFSYYALGRSRQAPGKERELVAAISVTGGSTYYADSVKGRFTISRDNAKNTVYLQMNSLKPEDTAVYYCAADSYYYDGDYWGQGTQVTVSS | high polyreactivity |
| QVQLVESGGGLVQAGGSLRLSCDASGRIFHYNSMGWYRQAPGKERELVAAISTGGSTNYADSVKGRFTISRDNAKNTVYLQMNSLKPEDTAVYYCAADHPVTYPTSKFDYWGQGTQVTVSS | low polyreactivity |
| QVQLVESGGGLVQAGGSLRLSCAASGSIFLAYAMGWYRQAPGKEREFVAAISFSDGSTYYADSVKGRFTISRDNAKNTVYLQMNSLKPEETAVYYCNKGASPDDYDYWGQGTQVTVSS | low polyreactivity |
| QVQLVETGGGLVQAGGSLRLSCAASGFTFAKYAMGRYRQAPGKERELVAAISSIGGSTYYADSVKGRFTISRDNAKNSVYLQMNSLKPEDSAVYFCAAELYCGYYYWGQGTQVTVYS | high polyreactivity |
| EVQLVETGGGLVQAGGSLRLSCAPSGFNFGVYAMGCYRQEPGKERELFAAISTTVGSTYYADSVKWRFTISRDNEKNTVYLQMTSLKPEDTAVYYCATGWSNCGQGTQVTVSS | low polyreactivity |
| QVQLVESGGGLVQAGGSLRLSCAASGSTFYTYAMGWYRQAPGKERELVAAITSSGTTNYADSVKGRFTISRDNAKNTVYLQMNSLKPEDTAVYYCAKRSYGGTLHYAFDSWGQGTQVTVSS | low polyreactivity |
| QVQLVESGGGLVQAGGSLRLSCPASGITFGSYAMGWYRQAPGKERELVAAITSGGGTNYADSEKGRFTISRDNAKNTVYLHMNSLKPEDTAGYYCAARYYYLGTRYGYWGQGTQVTVSS | low polyreactivity |
| QVHLEESGGGLVQAGGSLRLSCAASGLTFQWNAMGWYRQAPGKERELVAAISYSGGSTYYAYSVKGRFTISRDNAKYCVYLQMKSLKPEDTAVYYCAARTYSQWLQRYRLLGQGTQVTVSS | high polyreactivity |
| QVQLVESGGGLVQAGGSLRLSCAASGRIFDTNAMGWYRQAPGKERELVAAISSSGGRTYYADSVKGRFTISRDNAKNTVYLQMNSLRPEDTAVYYCARVPITKDQYSHYYYWGQGTQVTVSS | high polyreactivity |
| QVQLVESGGGLVQAGGSLRLSCAASGFIFWKYAKGWYRQAPGKERELVAAISTTGGSTYYADSVKGRFTNSRDNAKNTVYLQMNSLKPEDTAVYYCAAQVGRGYEVYPVYKYGYWGQGTQVTVSS | high polyreactivity |
| QVQLVESGGGLVQAGGSLRLSCAASGRTFSRNAMGWYRQAPGKERELVATITSDGSTNYADSVKGRFTISRDNAKNTVYLQMNSLKPEDTSVYYCAADEASSRGYYDYDYWGQGTQVTVSS | low polyreactivity |
| QVQLVESGGGLVQAGGSLRLSCAASGRIFTKYAMGWYRQAPGKERELVATISKRSGSTYYADSVKGRFTISRDNAKNTVYLQMNSLKPEDTAVYYCARTVGYRTLLESDSWGQGTQVTVSS | high polyreactivity |
| QVQVVESGGGLVQAGGSLRLSCAASGRTFIGNAMGWYRQAPGKERELVAAMSRSGGSTSYADSVKGRFTISRDNAKNTVYLQMNSLKPEDTAVYYCAKGYRGYSYGYWGQGTQVSVSS | high polyreactivity |
| QVQLVESGGGLVQAGGSLRLSCAASGRTFIPYAMGWYRQAPGKERQLVATIRRGGSTYYADSVKGRFTISRDNAKNTVYLQMNSLKPEDTAEYYCAATRYSFGPRRVDYWGQGTQVTVSS | high polyreactivity |
| QVQLVESGGGLVQAGGSLLLSCAASGRIFYGNAMGWYRQAPGKERELVAPISSGTSTNYADSVKGRFTISRDNGKNTVYLQMNSLKPEDTAVYYCAAGSYSRYLYSLYFDFDYWGQGTQVTVSS | low polyreactivity |
| QVQLVESGGGLVQAGGSLRLSCAASGFTFPVYALGWYRQAPGKEREFVAAITKSGGGTYYADSVKGRFTISRDNAKNTVYLQMTSLKPEDTAVYYCAKASRRFLTLGYDYWGQGTQVTVSS | high polyreactivity |
| QVQLVESGGGLVQAGGSLRLSCAASGRTFGLNAMGWYRQAPGKEMELVAAITSGGSTYYADSVKGRFTISRDNAKNTVYLQMNSLKPEDTAVYYCAVTYNGDSSWPGDYWGQGTQVTVSS | low polyreactivity |
| QVQLVESGGGLVQAGGSLRLSCAASGSTFQRYAMGWYRQAPGKERELVAAITSGGSTYYADSVKGRFTISRDNAKNTVYLQMISLKPEDTAVYYCNAAWFYRYGYWGQGTQVTVSS | high polyreactivity |

| Sequence | polyreactivity (PSR sort gate) |
| --- | --- |
| QVQLVESGGGLVQAGGSLRLSCAASGLTFDVYAMGWYRQAPGKERELVAAISSIGGSTYYADSVKGRFTISRDNAKNTVYLQMNSLKPEDTAVYYCNADYFGGGDYWGQGTQVTVSS | low polyreactivity |
| QVQLVESGGGLVQAGGSLRLSCAASGIIFGWYAMGWYRQAPGKERELVADISSDDSTYYADSVKGRFTISRDNAKNTVYLQMNSLKPEDTAVYYCAADTSYGSYWSLYYYNYYWGQGTQVTVSS | high polyreactivity |
| QVQLVESGGGLVQAGGSLRLSCAASGFTFRYYSMGWYRQAPGKERELVAAISSGGSTKYADSVKGRFTISRDNAKNTVYLQMNSLKPEDTAVYYCAARVVDGAQPRYVVIINTRYYWGQGTQVTVSS | high polyreactivity |
| QVQLQESGGGLVQAGGSLRLSCAASGNISVTGFMGWYRKAPGKERELVASIGIGGTTYYADSVKGRFSISRDNAKNTVYLQMNSLKPEDTAVYYCAARYLYYAYSYWGQGTQVTVSS | low polyreactivity |
| QVQLVESGGGLVQAGGSLRLSCAASGRIFSIYGMGWYRQAPGKEREFVASITYSGGSTYYADSVKGRFTISRDYAKNTVYLQMNSLKPEDTAVYYCNADIEKSYNYWGQGTQVTVSS | low polyreactivity |
| QVQLVESGGGLVQAGGSLRLSCAASGLTFYQNAMGWYRQAPGKERELVAAISSSGGRTYYADSVKGRFTISRDNAKNTVYLQMNSLKPEDTAVYYCAAYRRYRNWFNYWGQGTQVTVSS | high polyreactivity |
| QVQLVESGGGLVQAGGSLRLSCAASGFTFKYYVKGWYRQAPGKERELVAAISSNGGTTYYADSVKGRFTISRDNAKNTVYVQMNSLKPEDTAVYYCAAEPGQEYVVGYSYWGQGSQVTVSS | high polyreactivity |
| QVQLVESGGGLVQAGGSLRLSCAASGSTLTSNAIGWYRQAPGKERELVAAIRSGGSTNYADSVKGRFTISRDNAKNTVYLQMYSLNPEDTAVYYCNAEEKVTYSASYYWVYDAMDHWGQGTQVTVSS | low polyreactivity |
| QVQLVESGGGLVQAGGSLRLSCAASGSTFARYAMVWYRQAPGKERELVAVIRSGGSTNYADSVKGRFTISRDNAKNTVYLQMNSLKPEDTAGAADQWTIHRWATYGYWGQGTQVTVSS | low polyreactivity |
| QVQLVESGGGLVQAGGSLRLSCAASGSIFYVYAMGWYRQAPGKERELVAAITSSGTTNYADSVKGRFTISRDNAKNTVYLQMNSLKPEDTAVYYCAADAYSGAYFTYLGEIYDYWGQGTQVTVSS | low polyreactivity |
| QFQLGESGGGLVQAGGSLRLSCAACGSTFYLYAMGWYRQAPGKDRELVAAISKSCGSTYYADSVKGRFTISRDNAKNTVYLQMNSLKPEVTAVYYCATRWIKGRKMDYWGQGTQVTVSS | high polyreactivity |
| QVQLVESGGGLVQAGGSLRLSCAASGITFGRNAMGWYRQAPGKERELVAAISRGGSTNYADSVKGRFTISRDNAKNTVYLQMNSLKPEDTAVYYCAAQYKYRRYPKVAFEYWGQGTQVTVSS | high polyreactivity |
| QVQLVESGGGLVQAGGSLRLSCAASGYTFSGYAMGWYRQAPGKERELVAAISGSSTRTYYADSVKGRFTITRDYAKNTVYFQMNSLKPEDTAVYYCAARFRHGGPYKYGYWGHGTQVTVSS | high polyreactivity |
| QVQLVESGGGLVQAGGSLRLSCAASGRIFLLNAMGWSRQAPGKERELVAAIDIIGGSTYYADSVKGRFTISRDNAKNTVYLQMNSLKPEDTAVFYCAAEADFWRFVEYDYWGQGTQVTVSS | low polyreactivity |
| QVQLVESGGGLVQAGGSLRLSCAASVFTFPPYAMGWYRQAPGKERELVAAISSAGSTKYADSVKGRFTISRDNAKNTVYLQMNSLKPEDTAVYYCAARWARSYDYWGQGTQVTVSS | low polyreactivity |
| QVQLVDSAGCLVQAGGSLRLSCAASGRIFVYYVMGWYRQAPGKERELVASITFRGSRTYYADSVKGRFTISRDYAKNTVYLQMISLKPEDTAVYYCNADVWASGSRGDGYWGQGTQVTVAS | low polyreactivity |
| QVQLVESGGGLVQAGGSLRLSCAASGRIIIRYAMGWYRQAPGKERELVAGISRRGGSTSYADSVKWRFTISRDNAKNTVYLQMNSLKPEDTAVYYCGADSQYKYDYWGQGTQVTVSS | high polyreactivity |
| KVQLVESGGGLVQAGGTLRLSCAASGSTFTPYAMVWYRQAPGKERELVAAIWIGGNTYYADSVKGRFTISRDNAKNTVYLQMNSLKPEDTAVYYCATENVDPDHYYDWGYDYWGQGTQVTVSS | low polyreactivity |
| QVQLVESGGGLVQAGGSLRLSCAASGFTFYGYGMGWYRQAPGKERELVAVITSGGSTKYADSVKGRFTISRDNAKNTVDLQMNSLKPEDTAVYYCNVVGGRYLYSAYDYWGQGTQVTVSS | low polyreactivity |
| QVQLVESGGGLVQAGGSLRLSCAASGSIWRNAMGWYRQAPGKERELVAGITRRSGSTYYADSVKGRFTISRDNAKYTVYLQMNSLKPEDTAVYYCARVVVGGDDYWGQGTQVTVSS | high polyreactivity |
| QVQLVESGGGLVQAGGSLRLSCAASGRIYNGNAMGWYRQAPGKERELVAAITSDGSTYADSVKGRFTISRDNAKNTVYLHMNSLKPEATADYYCATDDPLAYGSFGPYQPYDYWGQGTQVTVSS | low polyreactivity |
